B1: TPR t1 (parent)
chain: GACCAAUCUGCCCUCAGAGCUCGAGAACAUCUUCGGAUGCAGAGGAGGCAGGCUUCGGUGGCGCGAUAGCGCCAACGUCCUCAACCUCCAAUGCAUCCCACCACAUGAUGAUGCCUGAAGAGCCUUGGUUUUUUG

Variants of: B1
Assay: polymerase ribozyme fitness, log enrichment relative to wild type (log ratio); higher = more active; in vitro selection for triplet polymerase activity
Summary of the method: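 Fitness measures genotype enrichment against wild-type enrichment on a logarithmic scale, with inverse-variance-weighted averaging of replicates. The logarithm is base 2, and genotypes were kept only with ≥10 input reads and ≥1 read per output in Illumina sequencing. The sequenced libraries came from one triplicate in vitro selection round, including frozen incubation at −7 °C, of PCR-built, transcribed mutant libraries of each subunit of a heterodimeric triplet polymerase ribozyme.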

Variant	polymerase ribozyme fitness (log ratio)
A2G C28U C70U G110U	-3.19
C3U G71U	-0.48
A2G C97U G113U C114G	-3.04
A2U U32G G60U G69A U92A C114A U116A C124G	-6.22
A2U A16G C72A	-3.41
A2G G113A	-1.6
C3A A5U A29G U116C	-2.92
C4A C53G G77A C80A	-5.1
C3A C76G G93A C115G	-5.76
C3U C12U C89G	-1.64
A2G A5C G60A A74U C86U G135U	-1.91
C3U C28A A41G C56U G120C	-5.25
C3A C62U G93C	-2.92
C3G A41C	-3.54
C3U G61A A91U	-1.66
C3G C13U G36U G45A C72U U125A G127U U131C	-2.84
A2C G71U G93A U109A G120C	-6.66
C3U C88A	-1.53
C3A C8U	-1.3
C4A A95U	-1.38
A2G G57C U59G A100U U106C	-0.973

Variant	polymerase ribozyme fitness (log ratio)
C3G U81C A111C G128A U133G	-4.61
C3U U7C A18C G52A C94A	-5.04
A2G C12U G17C U78C C86G	-4.66
A2U U9C C12A G51U C53A U55A G61U U78C G127U	-6.49
C4A C62A U92A U129A	-5.8
A2G C4G C8G G47U U54C C72A	-2.53
C3G G71C A90U A95U U112A	-3.23
A2U C56A	-2.33
A2G G77A C80A C124A	-0.514
C3G C88G U112G	-2.52
C3U C40U U54C U92G	-3.03
C4A C8A A37U C56A	-1.7
A2U A18G U32C G93U C124G U133G	-2.99
C3U C11A G120C	0.399
C3A C40A G93U G110U	-3.31
A2G U78A	0.0128
C3A G44U	-3.37
C3U A41C U125A U126C	-3.37
A2G C62A C104U	-0.429
C3U C8U G71U C88U G117C	-4.1
A2U G51C G69A A121G U132C	-6.81

Variant	polymerase ribozyme fitness (log ratio)
A2U C11G C28U G61A	-2.82
C3U C72U C98A	-5.34
C3A C15A	-3.67
A2U C114U	-4.35
A2G C73U	-0.754
C3U G69U A105G G117C	-4.98
A2G A46C	-0.998
A2G A37C A111G	-1.49
C3G C11A C12U G58C C62U	-4.45
C3U G10A G44C C49A G120U	0.0361
C3U C86G G113C	-3.51
C3U G17U G47A U96A U106A C115A U130G	-2.25
C3A U59G U78A C89A G120U	-3.26
C3U U14C C62U A118G U129C	-2.13
C4A C40U G42C G52U G60A A119U U129A	-5.41
C3G C86A	-3.1
C3G G10A U106A	-2.9
C3A G36C G63A U130C	-2.1
C3U C28A U112A	-2.92
C3G G19A C20G C88G U112G C115U	-5.61
C3U U9A	0.706

Variant	polymerase ribozyme fitness (log ratio)
C3G C73U A90C	-3.32
A2C U38G C79G A121C	-2.95
C3U C8A C73G G120C G135C	1.56
C4A	-1.19
C3U G45A A105U	-3.3
A2G C22U G61A A75U	-4.04
C3U G52A C62U A121U	1.52
C3U U32C C101U G120C	-0.584
A2U G77C U116A C124A U130C	-0.208
C3U C8A C11A U21A C124G	1.81
C3U C64U G71U C85G A121U	-4.22
C4A A50G C70U A74G A84C C115A	-5.12
C3A G10A A75G C86G C98U G122A	-2.58
C3U G63A	-1.72
C3G G63C A68C A111U U112G G113A	-5.32
A2G C12U A75U A111G G113A	-1.23
A2U G57C C82U C98U	-3.78
A2G A18C C115A C123U	-1.44
C3U C13G A111C	-1.32
C3U G45U G60U A91G C123U	-2.3
A2G C3G C31G A43U G60U C94U C114G	-7.19

Source: the RNAGym collection of RNA variant scans (doi:10.1073/pnas.2313332121)
